Data on one molecule can be found in article PMC7809593 (2021).

The target of this test is CXCL12α (Homo sapiens, UniProt P48061, CXCR4 fused to Kate2). The test is described as follows: receptor internalization sensor.

B1: CXCR4 (protein)
chain: MEGISIYTSDNYTEEMGSGDYDSMKEPCFREENANFNKIFLPTIYSIIFLTGIVGNGLVILVMGYQKKLRSMTDKYRLHLSVADLLFVITLPFWAVDAVANWYFGNFLCKAVHVIYTVNLYSSVLILAFISLDRYLAIVHATNSQRPRKLLAEKVVYVGVWIPALLLTIPDFIFANVSEADDRYICDRFYPNDLWVVVFQFQHIMVGLILPGIVILSCYCIIISKLSHSKGHQKRKALKTTVILILAFFACWLPYYIGISIDSFILLEIIKQGCEFENTVHKWISITEALAFFHCCLNPILYAFLGAKFKTSAQHALTSVSRGSSLKILSKGKRGGHSSVSTESESSSFHSS
On to B1, for which the Kd was approximately 2 nM.
